Target: thrombin (UniProt P00734;P00734 328-363;364-622)
Assay: dye-displacement fluorescence; YOYO-1 25 nM, aptamer 10 nM; 20 mM Tris-Cl pH 7.5, 300 mM NaCl, 5 mM MgCl2, 10 mM KCl; 25 C; 30 min incubation with target before dye

ATAGCGGAGGAAGGATACCTGGGGGAGTATAT (structured_DNA) [ATP aptamer]: no binding.

Source: paper PMC3474971
